Results on two molecules are retold here after paper PMC7246916, “14-3-3 Proteins and Other Candidates form Protein-Protein Interactions with the Cytosolic C-terminal End of SOS1 Affecting Its Transport Activity” (International Journal of Molecular Sciences, 2020).

This assay addresses T1, recombinant (10xHis)-labelled At14-3-3ω (Arabidopsis thaliana, UniProt Q01525 1-259).
T1 construct: 14-3-3 isoform omega, Arabidopsis thaliana; Construct details are in the Suppl; Methods; also called His-tagged 14-3-3ω protein; source: host in the Suppl; Methods
T1 sequence (looked up): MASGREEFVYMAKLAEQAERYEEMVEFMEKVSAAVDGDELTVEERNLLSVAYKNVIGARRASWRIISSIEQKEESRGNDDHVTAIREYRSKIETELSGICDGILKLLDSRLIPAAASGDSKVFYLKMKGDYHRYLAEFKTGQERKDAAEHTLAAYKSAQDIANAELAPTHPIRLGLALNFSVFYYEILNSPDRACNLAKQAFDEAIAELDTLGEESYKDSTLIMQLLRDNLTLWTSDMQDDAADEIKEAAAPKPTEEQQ
Nature of the assay: peptide or protein array; 15-mer synthetic peptides of SOS1 from amino acid 446, overlapping by 12, spotted on a cellulose membrane; incubated with recombinant 10xHis-14-3-3ω; anti-His antibody, HRP-coupled anti-mouse antibody, ECL. As to conditions: both partners purified.

B1: SOS1 C-term 15-mer peptide, spot H13 (peptide)
peptide: TRQNTMVESSDEEDE
notes: SOS1 (NHX7), Arabidopsis thaliana; source: synthetic peptide, immobilized on a cellulose membrane
As for B1, the binding result is “binds”.

B2: SOS1 C-term 15-mer peptide, spot H14 (peptide)
peptide: NTMVESSDEEDEDEG
notes: as for B1
In the case of B2, the binding result is reported as “binds”.
